Experimental findings from US20250341513A1, “Bordetella T Cells Epitopes, Megapools and Uses Thereof” (LA JOLLA INSTITUTE FOR IMMUNOLOGY, priority 2022, published 2025) are described below.

The test system of this test is CD4+ T cells. Put plainly: BP genome-wide peptide library screening by ex vivo AIM assay; epitope and antigen (ORF) reactivity and donor recognition. In kind it is cell-based, human. Conditions: for frequency of donor recognition: entire cohort (n=40); for magnitude, % of total response: sum of reactivity of individual epitopes per ORF/antigen across entire cohort (n=40), FIG. 3; for % of Donor response / % of Total magnitude: immunodominant antigens (ORFs); for % of Donor response: frequency of donors recognising the antigen; for % of Total magnitude: share of total CD4+ T cell response magnitude in the genome-wide screen.

On to filamentous hemagglutinin [FHA], for which the “frequency of donor recognition” value is recorded as 45.0 % of donors and the “magnitude, % of total response” value was 2.12 % of total response.

B1: Fim 2: fimbrial protein 2, aP vaccine antigen (protein, UniProt P05788 27-207, looked up)
Serotype 2 fimbrial subunit: DDGTIVITGTITDTTCVIEDPSGPNHTKVVQLPKISKNALKANGDQAGRTPFIIKLKDCPSSLGNGVKAYFEPGPTTDYSTGDLRAYKMVYATNPQTQLSNITAATEAQGVQVRISNLNDSKITMGANEATQQAAGFDPEVQTGGTSRTVTMRYLASYVKKNGDVEASAITTYVGFSVVYP
For B1, the “frequency of donor recognition” value is given as 5 % of donors and the “magnitude, % of total response” value is given as 0.09 % of total response.

B2: Virulence sensor protein BvgS (protein, UniProt P16575 33-1238, looked up)
Virulence sensor protein BvgS: SQELTLVGKAAVPDVEVALDGDDWRWLARKRVLTLGVYAPDIPPFDVTYGERYEGLTADYMAIIAHNLGMQAKVLRYPTREQALSALESGQIDLIGTVNGTDGRQQSLRLSVPYAADHPVIVMPIGARHVPASNLAGQRLAVDINYLPKETLARAYPQATLHYFPSSEQALAAVAYGQADVFIGDALTTSHLVSQSYFNDVRVVAPAHIATGGESFGVRADNTRLLRVVNAVLEAIPPSEHRSLIYRWGLGSSISLDFAHPAYSAREQQWMADHPVVKVAVLNLFAPFTLFRTDEQFGGISAAVLQLLQLRTGLDFEIIGVDTVEELIAKLRSGEADMAGALFVNSARESFLSFSRPYVRNGMVIVTRQDPDAPVDADHLDGRTVALVRNSAAIPLLQRRYPQAKVVTADNPSEAMLMVANGQADAVVQTQISASYYVNRYFAGKLRIASALDLPPAEIALATTRGQTELMSILNKALYSISNDELASIISRWRGSDGDPRTWYAYRNEIYLLIGLGLLSALLFLSWIVYLRRQIRQRKRAERALNDQLEFMRVLIDGTPNPIYVRDKEGRMLLCNDAYLDTFGVTADAVLGKTIPEANVVGDPALAREMHEFLLTRVAAEREPRFEDRDVTLHGRTRHVYQWTIPYGDSLGELKGIIGGWIDITERAELLRKLHDAKESADAANRAKTTFLATMSHEIRTPMNAIIGMLELALLRPTDQEPDRQSIQVAYDSARSLLELIGDILDIAKIEAGKFDLAPVRTALRVLPEGAIRVFDGLARQKGIELVLKTDIVGVDDVLIDPLRMKQVLSNLVGNAIKFTTEGQVVLAVTARPDGDAAHVQFSVSDTGCGISEADQRQLFKPFSQVGGSAEAGPAPGTGLGLSISRRLVELMGGTLVMRSAPGVGTTVSVDLRLTMVEKSVQAAPPAAATAATPSKPQVSLRVLVVDDHKPNLMLLRQQLDYLGQRVIAADSGEAALALWREHAFDVVITDCNMPGISGYELARRIRAAEAAPGYGRTRCILFGFTASAQMDEAQRCRAAGMDDCLFKPIGVDALRQRLNEAVARAALPTPPSPQAAAPATDDATPTAFSAESILALTQNDEALIRQLLEEVIRTNRADVDQLQKLHQQADWPKVSDMAHRLAGGARVVDAKAMIDTVLALEKKAQGQAGPSPEIDGLVRTLAAQSAALETQLRAWLEQRPHQDQP
In the case of B2, the “% of Donor response” value was 15% and the “% of Total magnitude” value turned out to be 0.76%.

B3: Membrane protein insertase YidC (protein, UniProt P65622 1-563, looked up)
Membrane protein insertase …: MDIRRTVLWMIFSFSLLLLWNNWQIHNGKPSLFGGPAPEAAATQQPKADANGTAASSTASIPSSPAAAPAAASVPGAAAPAAAKSEQVVITTDVLRLTFDSNGAQLIRAELLKYPSSSQSDKPTVLMDRSADLVYVAQTGVVGAPQGESFPTHQTPFHLVSSERSLTGDTLDVVFEAESGGLKVTKTYTLHRGRYDVDVRHAMANTGGAPLNPALYLQLERDGTDPAGTSSFYHTFTGVAVYSEQDKFQKVTFSDIEKKKGTYIKQADNGWIGIVQHYFATAWIPAQGKQRTNELLQVQQNLYAARTIEAVGTIAPGSSANVDAHLWVGPQDQKAMAAVAPGLELVVDYGWLTIIAKPLFTLMTWLHGLLGNWGWTIVALTVIIKAVFFPLAAASYRSMARMKQVAPRLQALKEKYGDDRQKLNQAMMEMYRTEKINPLGGCLPMVVQIPVFIALYWVLLASVEMRGAPWILWVHDLSVRDPFFILPAIMMATMFLQIKLNPTPPDPVQAKVMMIMPLVFGGMMFFFPAGLVLYWCVNNTLSIAQQWTITRNLERQAAAAANR
Consider B3, for which the “% of Donor response” value was determined as 17.5% and the “% of Total magnitude” value is 1.35%.

B4: Fim 3: fimbrial protein 3, aP vaccine antigen (protein, UniProt P17835 26-204, looked up)
Serotype 3 fimbrial subunit: NDGTIVITGSISDQTCVIEEPSTLNHIKVVQLPKISKNALRNDGDTAGATPFDIKLKECPQALGALKLYFEPGITTNYDTGDLIAYKQTYNASGNGNLSTVSSATKAKGVEFRLANLNGQHIRMGTDKTTQAAQTFTGKVTNGSKSYTLRYLASYVKKPKEDVDAAQITSYVGFSVVYP
Regarding B4, the “frequency of donor recognition” value is listed as 12.5 % of donors and the “magnitude, % of total response” value is reported as 0.24 % of total response.

B5: S-adenosylmethionine--tRNA ribosyltransferase-isomerase QueA (protein, UniProt Q7VZ81 1-347, looked up)
S-adenosylmethionine:tRNA …: MPTPLTLADFDYHLPPELIAQSPAAERGGSRLLHLDAASRLHDRRFPDLAGLLRPHDLLVFNDTRVIKARLTGQKATGGKVEVLVERITAPDRALAHVRASKSPGPGMRLRLAEAFEAEVLGREGELFDLRFPAPVLDLLDAHGATPLPPYITHAADATDERRYQTVYAREPGAVAAPTAGLHFDQPMLEQLAAQGVQRAFVTLHVGAGTFQPVRVQNLAEHIMHAEWYTVPEATVAAIARARAHGGRIVAVGTTSVRALESAAAQAQDGPLAAAQGDTRLFITPGYRYRAVDALLTNFHLPQSTLLMLVSALAGVEPIRRAYAHAVAERYRFFSYGDAMFIETPAP
Turning to B5, the “% of Donor response” value was found to be 17.5% and the “% of Total magnitude” value is listed as 0.27%.

B6: BrkA autotransporter (protein, UniProt Q45340 43-1010, looked up)
BrkA autotransporter: QAPQPPVAGAPHAQDAGQEGEFDHRDNTLIAVFDDGVGINLDDDPDELGETAPPTLKDIHISVEHKNPMSKPAIGVRVSGAGRALTLAGSTIDATEGGIPAVVRRGGTLELDGVTVAGGEGMEPMTVSDAGSRLSVRGGVLGGEAPGVGLVRAAQGGQASIIDATLQSILGPALIADGGSISVAGGSIDMDMGPGFPPPPPPLPGAPLAAHPPLDRVAAVHAGQDGKVTLREVALRAHGPQATGVYAYMPGSEITLQGGTVSVQGDDGAGVVAGAGLLDALPPGGTVRLDGTTVSTDGANTDAVLVRGDAARAEVVNTVLRTAKSLAAGVSAQHGGRVTLRQTRIETAGAGAEGISVLGFEPQSGSGPASVDMQGGSITTTGNRAAGIALTHGSARLEGVAVRAEGSGSSAAQLANGTLVVSAGSLASAQSGAISVTDTPLKLMPGALASSTVSVRLTDGATAQGGNGVFLQQHSTIPVAVALESGALARGDIVADGNKPLDAGISLSVASGAAWHGATQVLQSATLGKGGTWVVNADSRVQDMSMRGGRVEFQAPAPEASYKTLTLQTLDGNGVFVLNTNVAAGQNDQLRVTGRADGQHRVLVRNAGGEADSRGARLGLVHTQGQGNATFRLANVGKAVDLGTWRYSLAEDPKTHVWSLQRAGQALSGAANAAVNAADLSSIALAESNALDKRLGELRLRADAGGPWARTFSERQQISNRHARAYDQTVSGLEIGLDRGWSASGGRWYAGGLLGYTYADRTYPGDGGGKVKGLHVGGYAAYVGDGGYYLDTVLRLGRYDQQYNIAGTDGGRVTADYRTSGAAWSLEGGRRFELPNDWFAEPQAEVMLWRTSGKRYRASNGLRVKVDANTATLGRLGLRFGRRIALAGGNIVQPYARLGWTQEFKSTGDVRTNGIGHAGAGRHGRVELGAGVDAALGKGHNLYASYEYAAGDRINIPWSFHAGYRYSF
Consider B6, for which the “% of Donor response” value turned out to be 20% and the “% of Total magnitude” value amounted to 0.44%.

B7: pertactin (protein, UniProt P14283 35-910, looked up)
Pertactin autotransporter: DWNNQSIVKTGERQHGIHIQGSDPGGVRTASGTTIKVSGRQAQGILLENPAAELQFRNGSVTSSGQLSDDGIRRFLGTVTVKAGKLVADHATLANVGDTWDDDGIALYVAGEQAQASIADSTLQGAGGVQIERGANVTVQRSAIVDGGLHIGALQSLQPEDLPPSRVVLRDTNVTAVPASGAPAAVSVLGASELTLDGGHITGGRAAGVAAMQGAVVHLQRATIRRGDAPAGGAVPGGAVPGGAVPGGFGPGGFGPVLDGWYGVDVSGSSVELAQSIVEAPELGAAIRVGRGARVTVSGGSLSAPHGNVIETGGARRFAPQAAPLSITLQAGAHAQGKALLYRVLPEPVKLTLTGGADAQGDIVATELPSIPGTSIGPLDVALASQARWTGATRAVDSLSIDNATWVMTDNSNVGALRLASDGSVDFQQPAEAGRFKVLTVNTLAGSGLFRMNVFADLGLSDKLVVMQDASGQHRLWVRNSGSEPASANTLLLVQTPLGSAATFTLANKDGKVDIGTYRYRLAANGNGQWSLVGAKAPPAPKPAPQPGPQPPQPPQPQPEAPAPQPPAGRELSAAANAAVNTGGVGLASTLWYAESNALSKRLGELRLNPDAGGAWGRGFAQRQQLDNRAGRRFDQKVAGFELGADHAVAVAGGRWHLGGLAGYTRGDRGFTGDGGGHTDSVHVGGYATYIADSGFYLDATLRASRLENDFKVAGSDGYAVKGKYRTHGVGASLEAGRRFTHADGWFLEPQAELAVFRAGGGAYRAANGLRVRDEGGSSVLGRLGLEVGKRIELAGGRQVQPYIKASVLQEFDGAGTVHTNGIAHRTELRGTRAELGLGMAAALGRGHSLYASYEYSKGPKLAMPWTFHAGYRYSW
notes: aP vaccine antigen of B. pertussis
As for B7, the “frequency of donor recognition” value is listed as 40 % of donors and the “magnitude, % of total response” value is on record as 1.33 % of total response.
